Target: Human α-thrombin (Haematologic Technologies, Inc.) (human)
Experiment: cell-based or functional assay

- time to completion of the fluorescence increase (dissociation of the TBA15-F9+TBA29-D9+thrombin complex) after adding 1940 nM ATIII to 200 nM complex: 600 s
Substance: Antithrombin (Grifols Therapeutics Inc.) (from UniProt P01008 33-464)

Source: patent publication US20250076264A1
